According to paper PMC5071372, “Combining biophysical methods to analyze the disulfide bond in SH2 domain of C-terminal Src kinase” (Biophysics Reports, 2016):
“Also recorded” adds a separate entry of the source.

B1: oxidized L-SH2: human Csk SH2 domain with SH3–SH2 linker, residues A73–A178, disulfide oxidized (PDB 3EAC) (protein)
chain: AGTKLSLMPWFHGKITREQAERLLYPPETGLFLVRESTNYPGDYTLCVSCDGKVEHYRIMYHASKLSIDEEVYFENLMQLVEHYTSDADGLCTRLIKPKVMEGTVA
modifications: disulfide bond C122–C164; left off: intein, end not stated, cleaved
B2: reduced L-SH2: human Csk SH2 domain with SH3–SH2 linker, residues A73–A178, reduced form (protein)
chain: B1 chain
modifications: left off: intein, end not stated, cleaved
notes: human Csk SH2 domain with SH3–SH2 linker, residues A73–A178, reduced form
B3: full-length Csk: C-terminal Src kinase, full length (protein, UniProt P41240 1-450, looked up)
chain: MSAIQAAWPSGTECIAKYNFHGTAEQDLPFCKGDVLTIVAVTKDPNWYKAKNKVGREGIIPANYVQKREGVKAGTKLSLMPWFHGKITREQAERLLYPPETGLFLVRESTNYPGDYTLCVSCDGKVEHYRIMYHASKLSIDEEVYFENLMQLVEHYTSDADGLCTRLIKPKVMEGTVAAQDEFYRSGWALNMKELKLLQTIGKGEFGDVMLGDYRGNKVAVKCIKNDATAQAFLAEASVMTQLRHSNLVQLLGVIVEEKGGLYIVTEYMAKGSLVDYLRSRGRSVLGGDCLLKFSLDVCEAMEYLEGNNFVHRDLAARNVLVSEDNVAKVSDFGLTKEASSTQDTGKLPVKWTAPEALREKKFSTKSDVWSFGILLWEIYSFGRVPYPRIPLKDVVPRVEKGYKMDAPDGCPPAVYEVMKNCWHLDAAMRPSFLQLREQLEHIKTHELHL
modifications: full-length

Legend:
Csk L-SH2 disulfide bond = experiment: NMR-monitored reduction of oxidized SH2 by DTT; assay type: physicochemical, human; details: 10 mmol/L DTT, 50 mmol/L Tris-HCl pH 7.5, 1.0 mmol/L EDTA, 0.01% NaN3, 5% D2O, 298 K, NMR peak intensity
From the text: During purification of the Csk L-SH2 domain, 50 mmol/L DTT was used to elute the protein from the chitin resin. The L-SH2 was used in reduced form, given that DTT was used to cleave L-SH2 from its intein fusion partner. Following elution of the protein from the ion exchange column, the L-SH2 became a mixture of the reduced and oxidized forms. The fully oxidized form was obtained by exposing the protein to air for several days.
Fig. 3 Comparison of the oxidized and reduced form of SH2. A Comparison of ^1H–^15N HSQC of oxidized (red) and reduced (green) SH2. B Combined chemical shift change of oxidized and reduced form SH2. The difference was calculated as ∆δ tot = [(∆δ H)^2 + (0.154∆δ N)^2]^1/2. […]
All NMR experiments were performed at 298 K on 800 MHz spectrometers equipped with triple-resonance cryoprobes. […] The combined change in chemical shift of a particular residue upon ligation with the kinase domain was calculated as ∆δ = [(∆δ H)^2 + (0.154∆δ N)^2]^1/2, where ∆δ H and ∆δ N correspond to the changes in amide proton and nitrogen chemical shift, respectively. The weight factor for ^1H and ^15N is determined from the ratio of the average variances of the amide nitrogen and proton chemical shifts observed for the 20 common amino acid residues in proteins deposited in the BioMagResBank (Mulder et al. [1999]). […]

[1] = Guanidine hydrochloride-induced unfolding monitored by tryptophan fluorescence; assay type: physicochemical; details: guanidine hydrochloride 0 to 6 mol/L, two-state linear extrapolation to H2O
Experimental: Intrinsic fluorescence of oxidized and reduced form of L-SH2 domain, as well as that of the cysteine mutants C122S and C164S L-SH2, was measured to examine the role of the disulfide bond in the stability of the Csk SH2 domain. […] The thermodynamic stability of these oxidized and reduced L-SH2 domains, as well as that of the mutants at equilibrium, were characterized by determining the free energy of unfolding by using guanidine hydrochloride-induced unfolding experiments monitored by tryptophan fluorescence (Fig. 4A). The curves were fitted using the linear extrapolation model to obtain the ∆G for unfolding in H2O (Santoro and Bolen [1988]). […]
Fluorescence titrations were performed at 25 °C in 3 mL of 50 mmol/L Tris-HCl (pH 7.5) using excitation and emission wavelengths of 288 nm and 320 nm, respectively. […] The concentrations of guanidine hydrochloride of the solutions were determined by measuring the index of refraction and by using the following equation: d/d 0 = 1 + 0.2710 W + 0.0330 W ^2 (Tanford et al. [1966]), where W is the weight fraction of guanidine hydrochloride in the solution, d is the density of the solution, and d 0 is the density of water. […] The signals were normalized to the fraction of unfolded species using the standard relation F unf = (I − I N)/(I U − I N), where N and U stand for the fluorescence intensity of the native and fully unfolded species, respectively. […]

full-length Csk = details: ref Mills et al. [2007], cited from earlier work
From the text: Disulfide bonds are mostly found in secretory proteins and in extracellular domains of membrane proteins. Cytosolic proteins, which contain cysteine residues that are in close proximity to each other, may function as oxidation sensors; when the reductive potential of the cell fails, they oxidize and trigger cellular response mechanisms (Sevier and Kaiser [2002]). Mills et al. studied the unique disulfide bond of Csk SH2 that is absent in other known SH2 domains.

Molecule	t1/2 of the reduction reaction (Csk L-SH2 disulfide bond)	free energy of unfolding ΔG U,W^0 [1]	kinase activity upon formation of the disulfide bond in the SH2 domain (full-length Csk; full-length Csk)	kinase activity on prevention of the reduction of disulfide bond (full-length Csk; restored upon re-introduction of reducing agent)
B1	2.6 ± 0.1 h	10.1 ± 0.382 kcal/mol	–	–
B2	–	6.57 ± 0.17 kcal/mol	–	–
B3	–	–	decreases by an order of magnitude; also recorded: reduced by an order of magnitude	tenfold reduction in kinase activity
